This note sets out measurements from publication PMC3566586 (Molecular Cell, 2010).

Series [1] deals with T1, recombinant Flag-tagged Yox1p(151–274) (S. cerevisiae, UniProt P34161 151-274).
T1 sequence (looked up): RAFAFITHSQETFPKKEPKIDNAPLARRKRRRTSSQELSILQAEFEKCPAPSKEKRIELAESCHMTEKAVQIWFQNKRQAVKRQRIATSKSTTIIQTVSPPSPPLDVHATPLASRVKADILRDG
Nature of the series: pull-down.

The target of series [2] is Mcm1p(1-98);Yox1p full length (Saccharomyces cerevisiae;Saccharomyces …, UniProt P11746;P34161 1-98;1-385, |). Nature of the series: immobilized template pull-down.
Chain of Mcm1p(1-98);Yox1p full length (P34161 whole entry, one chain of several): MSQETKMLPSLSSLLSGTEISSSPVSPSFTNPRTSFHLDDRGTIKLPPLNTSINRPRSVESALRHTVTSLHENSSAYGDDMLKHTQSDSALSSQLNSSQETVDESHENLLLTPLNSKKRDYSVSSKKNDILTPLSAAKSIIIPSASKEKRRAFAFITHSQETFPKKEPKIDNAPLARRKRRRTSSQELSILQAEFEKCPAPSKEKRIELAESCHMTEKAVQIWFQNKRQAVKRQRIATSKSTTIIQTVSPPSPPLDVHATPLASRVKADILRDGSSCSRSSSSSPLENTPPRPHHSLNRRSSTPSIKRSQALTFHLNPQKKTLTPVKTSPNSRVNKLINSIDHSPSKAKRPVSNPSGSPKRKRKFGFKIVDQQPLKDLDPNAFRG
Series [3] has as its target T2, Mcm1p(1-98) (Saccharomyces cerevisiae, UniProt P11746 1-98). The experiment in a line: EMSA. For orientation: In EMSA bound probe runs differently from free probe, usually more slowly.
The target of series [4] is T3, Mcm1p(1-98);Fkh2p(1-458) (Saccharomyces cerevisiae;Saccharomyces …, UniProt P11746;P41813 1-98;1-458, |). Nature of the series: EMSA.
In series [5] the target is Mcm1p(1-96);Yox1p(151-274) recombinant (Saccharomyces cerevisiae;Saccharomyces …, UniProt P11746;P34161 1-96;151-274, |). Nature of the series: competition.
Series [6] addresses Mcm1p(1-98);Yox1p(151-274) (Saccharomyces cerevisiae;Saccharomyces …, UniProt P11746;P34161 1-98;151-274, |). The experiment in a line: EMSA.
Series [7] addresses T4, Yox1p(151-274) recombinant (Saccharomyces cerevisiae, UniProt P34161 151-274).
T4 sequence: T1 sequence (looked up)
Nature of the series: EMSA.

For series [8], the target named is Mcm1p(1-96);Yox1p(151-274) recombinant;Fkh2p(325-458) (Saccharomyces cerevisiae;Saccharomyces …, UniProt P11746;P34161;P41813 1-96;151-274;325-458, ||). Nature of the series: EMSA.
In series [9] the target is Mcm1p(1-98);Yox1p(N226Q) recombinant (Saccharomyces cerevisiae;Saccharomyces …, UniProt P11746;P34161 1-98;151-274, |N226Q). The experiment in a line: competition.
For series [10], the target named is T5, Yox1p(176-274) recombinant (Saccharomyces cerevisiae, UniProt P34161 176-274).
T5 sequence: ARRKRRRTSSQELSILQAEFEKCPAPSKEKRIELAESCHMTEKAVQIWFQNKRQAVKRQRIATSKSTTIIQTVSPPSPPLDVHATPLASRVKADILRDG
The experiment in a line: EMSA.

Series [11] concerns the target Mcm1p(1-98);Yox1p(151-274) recombinant (Saccharomyces cerevisiae;Saccharomyces …, UniProt P11746;P34161 1-98;151-274, |). Nature of the series: EMSA.
Series [12] deals with T3, Mcm1p(1-98);Fkh2p(1-458). The experiment in a line: EMSA. The source holds these as a separate data set.
A further series deals with Mcm1p(1-98);Yox1p(E196H) (Saccharomyces cerevisiae;Saccharomyces …, UniProt P11746;P34161 1-98;151-274, |E196H). Nature of the series: EMSA.
Series [13] deals with T2, Mcm1p(1-98). The experiment in a line: EMSA. The source holds these as a separate data set.
Series [14] addresses Mcm1p(1-96);Fkh2p full length (Saccharomyces cerevisiae;Saccharomyces …, UniProt P11746;P41813 1-96;1-862, |). Nature of the series: EMSA.
The next series deals with T6, Fkh2p(325-458) (Saccharomyces cerevisiae, UniProt P41813 325-458).
T6 sequence: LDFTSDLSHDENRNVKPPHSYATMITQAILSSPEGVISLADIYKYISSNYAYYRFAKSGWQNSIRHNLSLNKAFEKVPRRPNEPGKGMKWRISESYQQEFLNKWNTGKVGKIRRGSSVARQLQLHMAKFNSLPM
The experiment in a line: EMSA.

A further series has as its target T7, Yox1p(F155A) (Saccharomyces cerevisiae, UniProt P34161 151-274, F155A).
T7 sequence: T1 sequence (looked up) with F5A
The experiment in a line: EMSA.

For a further series, the target named is T8, Yox1p F163 mutant (Saccharomyces cerevisiae, UniProt P34161 151-274, F163A).
T8 sequence: T1 sequence (looked up) with F13A
The experiment in a line: EMSA.

The target of a further series is T9, Yox1p(F153A) (Saccharomyces cerevisiae, UniProt P34161 151-274, F153A).
T9 sequence: T1 sequence (looked up) with F3A
The experiment in a line: EMSA.

Residue numbers refer to the chain shown, from its start. Read-outs that look alike come from different tables or passages of the source.

Chain of Mcm1p(1-96);Fkh2p full length (P41813 whole entry, one chain of several): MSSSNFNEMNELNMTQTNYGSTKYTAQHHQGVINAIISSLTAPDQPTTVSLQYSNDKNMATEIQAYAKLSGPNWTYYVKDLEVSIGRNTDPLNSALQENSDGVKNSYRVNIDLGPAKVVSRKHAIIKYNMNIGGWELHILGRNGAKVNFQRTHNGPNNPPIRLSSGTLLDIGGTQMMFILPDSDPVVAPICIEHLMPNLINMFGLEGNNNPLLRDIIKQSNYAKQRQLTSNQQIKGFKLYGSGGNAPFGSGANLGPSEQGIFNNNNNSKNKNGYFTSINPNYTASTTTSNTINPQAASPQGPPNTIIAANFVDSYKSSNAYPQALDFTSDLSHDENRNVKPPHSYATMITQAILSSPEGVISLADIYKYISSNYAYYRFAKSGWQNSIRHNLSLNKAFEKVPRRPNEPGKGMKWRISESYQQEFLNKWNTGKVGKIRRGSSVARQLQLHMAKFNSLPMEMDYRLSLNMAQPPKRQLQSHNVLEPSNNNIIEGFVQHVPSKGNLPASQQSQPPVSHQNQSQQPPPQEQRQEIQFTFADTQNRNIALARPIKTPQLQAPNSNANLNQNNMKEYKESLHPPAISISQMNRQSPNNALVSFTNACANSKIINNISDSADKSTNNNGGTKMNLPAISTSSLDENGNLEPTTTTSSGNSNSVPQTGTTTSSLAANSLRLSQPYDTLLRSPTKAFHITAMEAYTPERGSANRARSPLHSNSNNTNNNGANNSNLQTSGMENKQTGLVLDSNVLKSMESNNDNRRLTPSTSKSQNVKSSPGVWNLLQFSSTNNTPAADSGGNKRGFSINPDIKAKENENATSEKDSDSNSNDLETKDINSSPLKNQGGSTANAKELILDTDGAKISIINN

B1: MBP-Mcm1p(1–96) (domain or fragment, S. cerevisiae, UniProt P11746 1-96, looked up)
chain: MSDIEEGTPTNNGQQKERRKIEIKFIENKTRRHVTFSKRKHGIMKKAFELSVLTGTQVLLLVVSETGLVYTFSTPKFEPIVTQQEGRNLIQACLNA
For B1, the binding result in [1] was “binds”.

B2: SPO12 WT biotin (dsDNA)
DNA 1: TCGAGGTTAATATCTTTTCCTAATTTGGAAATATGTAAACAGGGC
DNA 2: TCGAGCCCTGTTTACATATTTCCAAATTAGGAAAAGATATTAACC
B2: the binding result in [2] is listed as “binds”.

B3: SPO12 mut (Yox1p site) (dsDNA)
DNA 1: B2 DNA 1 with A10G, T11G
DNA 2: B2 DNA 2 with A39C, T40C
With B3, the binding result with Mcm1p(1-98) [3] and with Mcm1p(1-98);Fkh2p(1-458) [4] was “binds” throughout.

B4: SPO12 WT (dsDNA)
DNA 1: B2 DNA 1
DNA 2: B2 DNA 2
With B4, the binding result in [5] is “binds”; in series [6] it was “binds”; in [7], “binds”; in series [8], “binds”; in series [9], “no binding”; in series [10] it was “binds”. Also, the binding result (in series [11]; in the series with Mcm1p(1-98);Fkh2p(1-458) [12]; in the series with Mcm1p(1-98);Yox1p(E196H); with Mcm1p(1-98) [13]; in series [14]; in the series with Fkh2p(325-458)) was “binds” throughout. For the same molecule, the binding result with Yox1p(F155A), with Yox1p F163 mutant and with Yox1p(F153A) was “binds” in each case.
